{"source": "IntAct's records for PubMed 11248247", "parents": {"B1": {"name": "Twist-related protein 1 (Homo sapiens), Q15672 (parent)", "chain": "MMQDVSSSPVSPADDSLSNSEEEPDRQQPPSGKRGGRKRRSSRRSAGGGAGPGGAAGGGVGGGDEPGSPAQGKRGKKSAGCGGGGGAGGGGGSSSGGGSPQSYEELQTQRVMANVRERQRTQSLNEAFAALRKIIPTLPSDKLSKIQTLKLAARYIDFLYQVLQSDELDSKMASCSYVAHERLSYAFSVWRMEGAWSMSASH"}}}
{"variants_of": "B1", "settings": "with TCF3, P15923-1"}
{"variant": "MMQDVSSSPVSPADDSLSNSEEEPDRQQPPSGKRGGRKRRSSRRSAGGGAGPGGAAGGGVGGGDEPGSPAQGKRGKKSAGCGGGGGAGGGGGSSSGGGSPQSYEELQTQRVMANVRERQRTQSLNEAFAALRKIIPTLPSDKLSEIQTLKLAARYIDFLYQVLQSDELDSKMASCSYVAHERLSYAFSVWRMEGAWSMSASH", "note": "[K145E]", "effect of a mutation on the interaction": "decreasing interaction strength"}
{"variant": "MMQDVSSSPVSPADDSLSNSEEEPDRQQPPSGKRGGRKRRSSRRSAGGGAGPGGAAGGGVGGGDEPGSPAQGKRGKKSAGCGGGGGAGGGGGSSSGGGSPQSYEELQTQRVMANVRECQRTQSLNEAFAALRKIIPTLPSDKLSKIQTLKLAARYIDFLYQVLQSDELDSKMASCSYVAHERLSYAFSVWRMEGAWSMSASH", "note": "[R118C]", "effect of a mutation on the interaction": "with no effect"}
{"variant": "MMQDVSSSPVSPADDSLSNSEEEPDRQQPPSGKRGGRKRRSSRRSAGGGAGPGGAAGGGVGGGDEPGSPAQGKRGKKSAGCGGGGGAGGGGGSSSGGGSPQSYEELQTQRVMANVRERQRTQSLNEAFAALRKIIPTLPSDKLRKIQTLKLAARYIDFLYQVLQSDELDSKMASCSYVAHERLSYAFSVWRMEGAWSMSASH", "note": "[S144R]", "effect of a mutation on the interaction": "with no effect"}
{"variants_of": "B1", "settings": "with TCF3, P15923-1", "remark": "another data set of the same source"}
{"variant": "MMQDVSSSPVSPADDSLSNSEEEPDRQQPPSGKRGGRKRRSSRRSAGGGAGPGGAAGGGVGGGDEPGSPAQGKRGKKSAGCGGGGGAGGGGGSSSGGGSPQSYEELQTQRVMANVRERQRTQSLNEAFAALRKIIPTLPSDKLSEIQTLKLAARYIDFLYQVLQSDELDSKMASCSYVAHERLSYAFSVWRMEGAWSMSASH", "note": "[K145E]", "effect of a mutation on the interaction": "with no effect"}
